From US20220048967A1 (published 2022)
Numbered stars: 1 amine (or outer) side, 2 acyl side, 3 side chain; on linkers, the order of the positions; unused ones are H or OH. Square brackets hold non-standard residues; d marks the D form. Side chains are listed from the residue outwards. Ends that are not written are not given here. * marks the point of attachment. C20 diacid = O=C(O)CCCCCCCCCCCCCCCCCCC(=O)*; γGlu = O=C(O)[C@H](CCC(=O)[*:2])N[*:1]; AEEA = NCCOCCOCC(=O)O; Aib = CC(C)(N)C(=O)O

T1: human GIP receptor (human, UniProt P48546 22-466)
T1 sequence (looked up): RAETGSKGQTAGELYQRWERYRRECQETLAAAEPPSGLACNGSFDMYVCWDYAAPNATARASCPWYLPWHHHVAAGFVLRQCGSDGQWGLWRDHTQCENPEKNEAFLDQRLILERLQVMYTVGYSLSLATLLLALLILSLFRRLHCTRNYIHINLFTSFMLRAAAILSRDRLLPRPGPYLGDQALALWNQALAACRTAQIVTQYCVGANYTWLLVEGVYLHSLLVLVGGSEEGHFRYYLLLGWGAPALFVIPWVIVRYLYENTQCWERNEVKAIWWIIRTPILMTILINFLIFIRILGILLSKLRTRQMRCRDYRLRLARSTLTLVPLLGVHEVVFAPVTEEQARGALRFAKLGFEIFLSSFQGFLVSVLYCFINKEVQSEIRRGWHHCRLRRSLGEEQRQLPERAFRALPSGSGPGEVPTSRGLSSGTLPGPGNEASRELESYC

B1: Example 28 (peptide)
peptide: Y[Aib]EGTFTSDYSILLK([AEEA-AEEA-γGlu-C20 diacid])KIAQ[Aib]AFIEYLIEGGPSSGAPPPS-NH2
modifications: N-terminus assumed
SMILES: CC[C@H](C)[C@H](NC(=O)[C@H](CCCCN)NC(=O)[C@H](CCCCNC(=O)COCCOCCNC(=O)COCCOCCNC(=O)CC[C@H](NC(=O)CCCCCCCCCCCCCCCCCCC(=O)O)C(=O)O)NC(=O)[C@H](CC(C)C)NC(=O)[C@H](CC(C)C)NC(=O)[C@@H](NC(=O)[C@H](CO)NC(=O)[C@H](Cc1ccc(O)cc1)NC(=O)[C@H](CC(=O)O)NC(=O)[C@H](CO)NC(=O)[C@@H](NC(=O)[C@H](Cc1ccccc1)NC(=O)[C@@H](NC(=O)CNC(=O)[C@H](CCC(=O)O)NC(=O)C(C)(C)NC(=O)[C@@H](N)Cc1ccc(O)cc1)[C@@H](C)O)[C@@H](C)O)[C@@H](C)CC)C(=O)N[C@@H](C)C(=O)N[C@@H](CCC(N)=O)C(=O)NC(C)(C)C(=O)N[C@@H](C)C(=O)N[C@@H](Cc1ccccc1)C(=O)N[C@H](C(=O)N[C@@H](CCC(=O)O)C(=O)N[C@@H](Cc1ccc(O)cc1)C(=O)N[C@@H](CC(C)C)C(=O)N[C@H](C(=O)N[C@@H](CCC(=O)O)C(=O)NCC(=O)NCC(=O)N1CCC[C@H]1C(=O)N[C@@H](CO)C(=O)N[C@@H](CO)C(=O)NCC(=O)N[C@@H](C)C(=O)N1CCC[C@H]1C(=O)N1CCC[C@H]1C(=O)N1CCC[C@H]1C(=O)N[C@@H](CO)C(N)=O)[C@@H](C)CC)[C@@H](C)CC
B2: Example 24 (peptide)
peptide: Y[Aib]EGTFTSDYK([AEEA-AEEA-γGlu-C20 diacid])ILLDKIAQ[Aib]AFIEYLIEGGPSSGAPPPS-NH2
modifications: N-terminus assumed
SMILES: CC[C@H](C)[C@H](NC(=O)[C@H](CCCCN)NC(=O)[C@H](CC(=O)O)NC(=O)[C@H](CC(C)C)NC(=O)[C@H](CC(C)C)NC(=O)[C@@H](NC(=O)[C@H](CCCCNC(=O)COCCOCCNC(=O)COCCOCCNC(=O)CC[C@H](NC(=O)CCCCCCCCCCCCCCCCCCC(=O)O)C(=O)O)NC(=O)[C@H](Cc1ccc(O)cc1)NC(=O)[C@H](CC(=O)O)NC(=O)[C@H](CO)NC(=O)[C@@H](NC(=O)[C@H](Cc1ccccc1)NC(=O)[C@@H](NC(=O)CNC(=O)[C@H](CCC(=O)O)NC(=O)C(C)(C)NC(=O)[C@@H](N)Cc1ccc(O)cc1)[C@@H](C)O)[C@@H](C)O)[C@@H](C)CC)C(=O)N[C@@H](C)C(=O)N[C@@H](CCC(N)=O)C(=O)NC(C)(C)C(=O)N[C@@H](C)C(=O)N[C@@H](Cc1ccccc1)C(=O)N[C@H](C(=O)N[C@@H](CCC(=O)O)C(=O)N[C@@H](Cc1ccc(O)cc1)C(=O)N[C@@H](CC(C)C)C(=O)N[C@H](C(=O)N[C@@H](CCC(=O)O)C(=O)NCC(=O)NCC(=O)N1CCC[C@H]1C(=O)N[C@@H](CO)C(=O)N[C@@H](CO)C(=O)NCC(=O)N[C@@H](C)C(=O)N1CCC[C@H]1C(=O)N1CCC[C@H]1C(=O)N1CCC[C@H]1C(=O)N[C@@H](CO)C(N)=O)[C@@H](C)CC)[C@@H](C)CC
B3: Example 26 (peptide)
peptide: Y[Aib]EGTFTSDYSIK([AEEA-AEEA-γGlu-C20 diacid])LDKIAQ[Aib]AFIEYLIEGGPSSGAPPPS-NH2
modifications: N-terminus assumed
SMILES: CC[C@H](C)[C@H](NC(=O)[C@H](CCCCN)NC(=O)[C@H](CC(=O)O)NC(=O)[C@H](CC(C)C)NC(=O)[C@H](CCCCNC(=O)COCCOCCNC(=O)COCCOCCNC(=O)CC[C@H](NC(=O)CCCCCCCCCCCCCCCCCCC(=O)O)C(=O)O)NC(=O)[C@@H](NC(=O)[C@H](CO)NC(=O)[C@H](Cc1ccc(O)cc1)NC(=O)[C@H](CC(=O)O)NC(=O)[C@H](CO)NC(=O)[C@@H](NC(=O)[C@H](Cc1ccccc1)NC(=O)[C@@H](NC(=O)CNC(=O)[C@H](CCC(=O)O)NC(=O)C(C)(C)NC(=O)[C@@H](N)Cc1ccc(O)cc1)[C@@H](C)O)[C@@H](C)O)[C@@H](C)CC)C(=O)N[C@@H](C)C(=O)N[C@@H](CCC(N)=O)C(=O)NC(C)(C)C(=O)N[C@@H](C)C(=O)N[C@@H](Cc1ccccc1)C(=O)N[C@H](C(=O)N[C@@H](CCC(=O)O)C(=O)N[C@@H](Cc1ccc(O)cc1)C(=O)N[C@@H](CC(C)C)C(=O)N[C@H](C(=O)N[C@@H](CCC(=O)O)C(=O)NCC(=O)NCC(=O)N1CCC[C@H]1C(=O)N[C@@H](CO)C(=O)N[C@@H](CO)C(=O)NCC(=O)N[C@@H](C)C(=O)N1CCC[C@H]1C(=O)N1CCC[C@H]1C(=O)N1CCC[C@H]1C(=O)N[C@@H](CO)C(N)=O)[C@@H](C)CC)[C@@H](C)CC
B4: Example 25 (peptide)
peptide: Y[Aib]EGTFTSDYSK([AEEA-AEEA-γGlu-C20 diacid])LLDKIAQ[Aib]AFIEYLIEGGPSSGAPPPS-NH2
modifications: N-terminus assumed
SMILES: CC[C@H](C)[C@H](NC(=O)[C@H](CCCCN)NC(=O)[C@H](CC(=O)O)NC(=O)[C@H](CC(C)C)NC(=O)[C@H](CC(C)C)NC(=O)[C@H](CCCCNC(=O)COCCOCCNC(=O)COCCOCCNC(=O)CC[C@H](NC(=O)CCCCCCCCCCCCCCCCCCC(=O)O)C(=O)O)NC(=O)[C@H](CO)NC(=O)[C@H](Cc1ccc(O)cc1)NC(=O)[C@H](CC(=O)O)NC(=O)[C@H](CO)NC(=O)[C@@H](NC(=O)[C@H](Cc1ccccc1)NC(=O)[C@@H](NC(=O)CNC(=O)[C@H](CCC(=O)O)NC(=O)C(C)(C)NC(=O)[C@@H](N)Cc1ccc(O)cc1)[C@@H](C)O)[C@@H](C)O)C(=O)N[C@@H](C)C(=O)N[C@@H](CCC(N)=O)C(=O)NC(C)(C)C(=O)N[C@@H](C)C(=O)N[C@@H](Cc1ccccc1)C(=O)N[C@H](C(=O)N[C@@H](CCC(=O)O)C(=O)N[C@@H](Cc1ccc(O)cc1)C(=O)N[C@@H](CC(C)C)C(=O)N[C@H](C(=O)N[C@@H](CCC(=O)O)C(=O)NCC(=O)NCC(=O)N1CCC[C@H]1C(=O)N[C@@H](CO)C(=O)N[C@@H](CO)C(=O)NCC(=O)N[C@@H](C)C(=O)N1CCC[C@H]1C(=O)N1CCC[C@H]1C(=O)N1CCC[C@H]1C(=O)N[C@@H](CO)C(N)=O)[C@@H](C)CC)[C@@H](C)CC
B5: Example 27 (peptide)
peptide: Y[Aib]EGTFTSDYSILK([AEEA-AEEA-γGlu-C20 diacid])DKIAQ[Aib]AFIEYLIEGGPSSGAPPPS-NH2
modifications: N-terminus assumed
SMILES: CC[C@H](C)[C@H](NC(=O)[C@H](CCCCN)NC(=O)[C@H](CC(=O)O)NC(=O)[C@H](CCCCNC(=O)COCCOCCNC(=O)COCCOCCNC(=O)CC[C@H](NC(=O)CCCCCCCCCCCCCCCCCCC(=O)O)C(=O)O)NC(=O)[C@H](CC(C)C)NC(=O)[C@@H](NC(=O)[C@H](CO)NC(=O)[C@H](Cc1ccc(O)cc1)NC(=O)[C@H](CC(=O)O)NC(=O)[C@H](CO)NC(=O)[C@@H](NC(=O)[C@H](Cc1ccccc1)NC(=O)[C@@H](NC(=O)CNC(=O)[C@H](CCC(=O)O)NC(=O)C(C)(C)NC(=O)[C@@H](N)Cc1ccc(O)cc1)[C@@H](C)O)[C@@H](C)O)[C@@H](C)CC)C(=O)N[C@@H](C)C(=O)N[C@@H](CCC(N)=O)C(=O)NC(C)(C)C(=O)N[C@@H](C)C(=O)N[C@@H](Cc1ccccc1)C(=O)N[C@H](C(=O)N[C@@H](CCC(=O)O)C(=O)N[C@@H](Cc1ccc(O)cc1)C(=O)N[C@@H](CC(C)C)C(=O)N[C@H](C(=O)N[C@@H](CCC(=O)O)C(=O)NCC(=O)NCC(=O)N1CCC[C@H]1C(=O)N[C@@H](CO)C(=O)N[C@@H](CO)C(=O)NCC(=O)N[C@@H](C)C(=O)N1CCC[C@H]1C(=O)N1CCC[C@H]1C(=O)N1CCC[C@H]1C(=O)N[C@@H](CO)C(N)=O)[C@@H](C)CC)[C@@H](C)CC

Legend:
[1] = target: human GLP-1 receptor (human, UniProt P43220 24-463); test: cell-based or functional assay
[2] = target: T1, human GIP receptor; test: cell-based or functional assay

Row | Binder | hGLP1R cAMP EC50 ratio [1] | hGLP1R cAMP Rel EC50 [1] | hGIPR cAMP EC50 ratio [2] | hGIPR cAMP Rel EC50 [2]
1 | B1 | 0.00166 | 32700 pM | 0.106 | 1660 pM
2 | B2 | 0.00416 | 13000 pM | 0.228 | 762 pM
3 | B3 | 0.238 | 293 pM | 0.585 | 251 pM
4 | B4 | 0.197 | 356 pM | 0.636 | 230 pM
5 | B5 | 0.123 | 557 pM | 1.9 | 78.9 pM
